Measured values published in patent US20190127462A1 (UNIVERSITY OF TSUKUBA, published 2019).

T1: human DNAX accessory molecule-1 (DNAM-1) protein (human, UniProt Q15762 19-336)
T1 construct: whole, on cells; Expressed on BW5147 mouse lymphocyte cells (DNAM-1/BW) or present on human peripheral blood lymphocytes / CD8+ T cells; also called CD226; human DMAM-1 protein
T1 sequence (looked up): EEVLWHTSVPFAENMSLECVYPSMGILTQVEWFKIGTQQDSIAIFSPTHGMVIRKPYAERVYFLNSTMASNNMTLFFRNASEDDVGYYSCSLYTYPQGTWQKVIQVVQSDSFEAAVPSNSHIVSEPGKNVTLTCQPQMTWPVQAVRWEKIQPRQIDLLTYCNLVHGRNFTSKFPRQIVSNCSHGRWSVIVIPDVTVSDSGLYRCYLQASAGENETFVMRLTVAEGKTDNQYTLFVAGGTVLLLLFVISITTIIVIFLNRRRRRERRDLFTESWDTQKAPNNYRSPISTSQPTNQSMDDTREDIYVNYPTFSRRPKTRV

B1: anti-human DNAM-1 monoclonal antibody No. 1 (antibody, V domains shown)
VH: SQSLSLTCSVTGYSITSGYYWNWIRQFPGNKLEWMGYISYDGSNNYNPSLKNRISITRDTSKNQFFLKLNSVTTEDTATYYCARAYYGNYVGYFDVWGAGTTVTVSS
VL: RVTITCKASQSVSNDVAWYQQKPGQSPKLLIYYASNRYTGVPDRFTGSGYGTDFTFTISTVQAEDLAVYFCQQDYSSPLTFGAGTKLELKR
notes: Mouse hybridoma monoclonal antibody
B2: anti-human DNAM-1 monoclonal antibody No. 4 (antibody, V domains shown)
VH: KWGLSEISCKASGYTFTDYNMHWVKQSHGKSLEWIGYIYPYNGGTGYNQKFKSKATLTVDNSSSTAYMELRSLTSEDSAVYYCAGYWYFDVWGAGTTVTVSS
VL: EKVSITCKASQDVGTAVAWYQQKPGQSPKLLIYWASTRHTGVPDRFTGSGSGTDFTLTISNVQSEDLADYFCQQYSSYPWTFGGGTKLEIKR
notes: as for B1
B3: anti-human DNAM-1 monoclonal antibody No. 2 (antibody, V domains shown)
VH: SQSLSLTCTVTGYSITSDYAWNWIRQFPGNKLEWMGYISYSGTTTYNPSLKSRISITRDTSKNQFFLQLNSVTTEDTATYYCAELSMDYWGQGTSVTVSS
VL: DIVLSQSPAILSVSPGERVSFSCRASQSIGTSIHWYQQRTNGSPRLLIKYASESISGIPSRFSGSGSGTDFTLSINSVESEDIADYYCQQSRSWPLTFGAGTKLELKR
notes: as for B1
B4: anti-human DNAM-1 monoclonal antibody No. 3 (antibody, V domains shown)
VH: EISCKASGYTFTNYWLGWVKQRPGHGLEWIGDIYPGGGYTNYNEKFKGKATLTADTSSSTAYMQLSSLTSEDSAVYFCANAYYRYKGFAYWGQGTLVTVSA
VL: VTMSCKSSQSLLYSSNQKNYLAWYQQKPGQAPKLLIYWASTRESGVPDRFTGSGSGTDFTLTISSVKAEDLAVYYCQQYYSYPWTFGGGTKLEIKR
notes: as for B1

Assays:
[1] = target: T1, human DNAX accessory molecule-1 …; experiment: flow cytometry; 1x10^5 DNAM-1/BW cells pre-saturated with 1000 ng hCD155-Fc (competitor); remaining hCD155-Fc detected
Procedure: After DNAM-1/BW cells reacted with the hCD155-Fc protein in advance had been reacted with a specific one of the monoclonal antibody No. 1 to No. 6 diluted serially in Test example 6, the hCD155-Fc protein bound to the DNAM-1 protein present on the surfaces of the DNAM-1/BW cells was detected. The detection of the hCD155-Fc protein was conducted using an anti-human IgG antibody. The reaction was made on ice for 30 minutes.
It was also confirmed that, in the range where the concentration of the monoclonal antibody reacted with the DNAM-1/BW cells was low, the reidues of hCD155-Fc protein after the DNAM-1/BW cells had been reacted with the monoclonal antibody No. 3 was smaller than that of hCD155-Fc protein after the DNAM-1/BW cells had been reacted with the monoclonal antibody No. 2. This proves that, in the range where the concentration of the monoclonal antibody reacted with the DNAM-1/BW cells was low, the monoclonal antibody No. 3 had higher activity of inhibiting the interaction between the DNAM-1 protein and the CD155 protein than the monoclonal antibody No. 2. In the range where the concentration of the monoclonal antibody reacted with the DNAM-1/BW cells was high, the difference in the above reactivity between the monoclonal antibody Nos. 2 and 3 was small. The amount of monoclonal antibody No. 3 required for completely inhibiting the interaction between the DNAM-1 protein and the CD155 protein was 300 ng.

[2] = target: T1, human DNAX accessory molecule-1 …; experiment: flow cytometry on 1x10^5 DNAM-1/BW cells

Binder | amount required for completely inhibiting the interaction between the DNAM-1 protein and the CD155 protein [1] [ng] | minimum amount required for saturating human DNAM-1 on 1x10^5 DNAM-1/BW cells [2] [ng]
B1 | 100 | 30
B2 | 1000 | 100
B3 | 300 | 50
B4 | 300 | 100
